Measurements: the supplement of paper PMC10567573
± gives the standard deviation.

Assay: protein stability index of a GFP-peptide fusion (GPS, HEK-293T) (PSI 1-6); higher = more stable
[1] = treatment: DMSO, c terminus: a fixed tail appended
[2] = treatment: MLN4924 1 uM, 8 h, c terminus: a fixed tail appended
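Note: 24-mer peptide tiles fused after GFP, lentivirally expressed, FACS-sorted into six equal bins by GFP/DsRed ratio, decoded by Illumina sequencing, PSI is the read-weighted mean bin number.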

Sequence | protein stability index [1] | protein stability index [2] | protein stability index (treatment: DMSO, c terminus: native) | protein stability index (treatment: MLN4924 1 uM, 8 h, c terminus: native)
ISKNKKKASNSIISCFNNAPPAKL [FAN1] | 3.36 ± 0.21 | 2.79 ± 0.31 | – | –
ISLALFVLPKPKVISCLEQGEEPW [ZNF75A] | 3.21 ± 0.49 | 2.9 ± 0.56 | – | –
ISLTCVSVAFAVAWFLPMPQKSLF [SLC19A2] | 3.15 ± 0.18 | 3.19 ± 0.17 | – | –
ISPRGAGYTFGQDISETFNHANGL [PPP2CA] | 3.17 ± 0.26 | 3.23 ± 0.41 | – | –
ISRALLSDVVPEKERPLVIGHFNT [MFSD9] | 3.04 ± 0.45 | 2.99 ± 0.31 | – | –
ITATSLLGTRESDTEVITVEKSSP [BCL2L13] | 4.91 ± 0.19 | 5.01 ± 0.16 | – | –
ITSSIPDTERLDDFHLSIHSDMAA [DVL3] | 4.08 ± 0.22 | 4.3 ± 0.17 | – | –
ITTVSKAKGASLFTCDLQHTETGE [VPS39] | 4.06 ± 0.25 | 3.99 ± 0.21 | – | –
IVITGDADIDHDQALAQAIKEAKE [EPB41L3] | 2.85 ± 0.58 | 3.45 ± 0.48 | – | –
IVKQMKIIHEAGYSEEECKQYKAV [GNAI1] | 3.13 ± 0.22 | 3.77 ± 0.23 | – | –
IVKQQDPLVYKAIQQGINAVNQEA [ACSBG2] | 3.75 ± 0.11 | 3.82 ± 0.12 | – | –
IYAMKILRKSDMLEKEQVAHIRAE [STK38L] | 2.33 ± 0.26 | 2.48 ± 0.22 | – | –
IYTEFPDETLRSGELLNMIVAVID [INTS3] | 2.14 ± 0.29 | 2.47 ± 0.099 | – | –
KAEGGEEDSLGCLTADTKEVTASQ [IRX6] | 5.49 ± 0.22 | 5.48 ± 0.24 | – | –
KAGQPESRALALFDIQKIMQEKNP [ZNF8] | 4.06 ± 0.36 | 4.26 ± 0.12 | – | –
KALTTLCDLADRELVVIIGWAKHI [ESRRG] | 2.83 ± 0.38 | 2.79 ± 0.62 | – | –
KAQAKVGSLDNAHHVPGGGNVKID [MAP2] | 4.85 ± 0.12 | 4.87 ± 0.34 | – | –
KCAEVIIPLLSSVNVSDRGGRTAL [ANKRD44] | 2.38 ± 0.37 | 2.37 ± 0.16 | – | –
KDGKLLAATLLLALLSCCLTVVSF [TNFSF13B] | 3.26 ± 0.39 | 3.35 ± 0.32 | – | –
KDIAGEFKEQLQALIPYVLNPSKL [ATL3] | 2.19 ± 0.11 | 2.32 ± 0.18 | – | –
KDPRQWTETHVRDWVMWAVNEFSL [ETS1] | 2.67 ± 1.1 | 2.23 ± 0.34 | – | –
KDQQTFARSVGLKWRKVGRSLQRG [TRADD] | 3.27 ± 0.34 | 3.49 ± 0.3 | – | –

Sequence | protein stability index [1] | protein stability index [2] | protein stability index (treatment: DMSO, c terminus: native) | protein stability index (treatment: MLN4924 1 uM, 8 h, c terminus: native)
KEAGLSQSHDDLSNATATPSVRKK [C2CD2L] | 5.44 ± 0.19 | 5.53 ± 0.28 | – | –
KEEVRAALEQREQDAVDQVKVIMD [TRIM29] | 5.23 ± 0.36 | 5.39 ± 0.13 | – | –
KENEMMKSHVMDQAINNAINYLGA [IKZF1] | 3.24 ± 0.089 | 2.87 ± 0.3 | – | –
KERLKPAHIHLQQLTCFSITCSST [KRT34] | 2.1 ± 0.34 | 2.49 ± 0.22 | – | –
KGFIQKGNLNIHQRTHTGEKPYGC [ZNF649] | 3.67 ± 0.14 | 3.68 ± 0.2 | – | –
KGKLFTWNILKTIALGQMLSLCIC [SLC35F2] | 2.62 ± 0.89 | 2.57 ± 0.57 | – | –
KGNREDSARMSAGLPGPEAARSGD [PLEKHN1] | 5.41 ± 0.39 | 5.39 ± 0.41 | – | –
KGSPDVSASSDEPYARIQQSRRQC [SMIM2] | 4.74 ± 0.18 | 5.02 ± 0.2 | – | –
KGTILYLQKDEYRPDKALSEGDLK [PSD2] | 3.99 ± 0.21 | 4.04 ± 0.18 | – | –
KHKRQMQDPQLHSPFSGSLHAPPA [VENTX] | 3.98 ± 0.28 | 3.83 ± 0.25 | – | –
KIIFRVGLVLLKHALGSPEKVKAC [TBC1D10A] | 2.77 ± 0.43 | 2.76 ± 0.19 | – | –
KIRKIHTQRQYKEDESQSEEENDY [CEP70] | 5.14 ± 0.21 | 5.16 ± 0.18 | – | –
KISGGPHISYPPLHEWVLREGEE [MAGEA3] | – | – | 2.92 ± 0.62 | 3.33 ± 0.43
KIYDSPCLPEAEAMFAINADGVGD [RAD51] | 4.71 ± 0.19 | 4.65 ± 0.38 | – | –
KKAQGKTQQNRKLTDFYPVRRSSR [KMT5A] | 3.29 ± 0.54 | 3.86 ± 0.39 | – | –
KKMEQNKTAATRYRQKKRAEQEAL [ATF4] | 4.48 ± 0.52 | 4.55 ± 0.33 | – | –
KKRLQELALALKKCKPSLPAEAEG [TMEM120A] | 3.62 ± 0.48 | 3.34 ± 0.36 | – | –
KKWQQYRSVRRERLKEMKLLRDQF [FAM9B] | 2.59 ± 0.27 | 2.71 ± 0.2 | – | –
KLAQALHEMREQHDAQVRLYKEEL [LMNB1] | 2.66 ± 0.3 | 2.7 ± 0.22 | – | –
KLQLQLNETKSQAFVSNSPKLFCP [PLD5] | 2.87 ± 0.075 | 2.95 ± 0.6 | – | –
KNGRVDSEDRRSRHCPYLDTINRS [USP39] | 3.99 ± 0.26 | 4.2 ± 0.34 | – | –
KNHEEEMLALRGQTGGDVNVEMDA [KRT16] | 5.46 ± 0.17 | 5.6 ± 0.22 | – | –

Sequence | protein stability index [1] | protein stability index [2] | protein stability index (treatment: DMSO, c terminus: native) | protein stability index (treatment: MLN4924 1 uM, 8 h, c terminus: native)
KPARKRRRRSRKKPSGALGSESYK [EHMT1] | 5.11 ± 0.27 | 5.28 ± 0.14 | – | –
KQQKDPSEEAAVLQYASLVGQKCS [ATE1] | 4.84 ± 0.23 | 4.77 ± 0.2 | – | –
KRFQTLISKMEPLEIPVETITSEV [CRY1] | 3.27 ± 0.25 | 3.5 ± 0.39 | – | –
KRIAHFDLKPENIMLLDKNVPNPR [DAPK3] | 3.68 ± 0.44 | 3.25 ± 0.77 | – | –
KRPAPRTAPRQEKHERTHEIIPIN [SPRY1] | 4.03 ± 0.18 | 4.2 ± 0.15 | – | –
KRRRKETSECPSDKDKSPESHKAK [C10orf62] | 5.34 ± 0.27 | 5.42 ± 0.21 | – | –
KSEEELAECFRIFDRNADGYIDPE [TNNC2] | 4.8 ± 0.52 | 5.29 ± 0.43 | – | –
KSFSMAKGLNARMMRGLSYSLTTS [RAB40A] | 2.35 ± 0.13 | 2.56 ± 0.25 | – | –
KSPLHMTAVHGRFTRSQTLIQNGG [ANKRD44] | 3.28 ± 0.24 | 3.45 ± 0.18 | – | –
KSRRSRSESETSTMAAKKNRQSSD [C18orf25] | 5.47 ± 0.15 | 5.53 ± 0.25 | – | –
KTIDLGAAAHYTGDKASPDQNAST [CLINT1] | 5.26 ± 0.31 | 5.41 ± 0.49 | – | –
KTKAPAPDEGSDLFYDDYYEDGEV [CDC34] | 5.35 ± 0.31 | 5.38 ± 0.29 | – | –
KVLGNRWAEIAKMLPGRTDNAVKN [MYBL2] | 2.91 ± 0.45 | 2.98 ± 0.24 | – | –
KVLILRNHGLVSVGESVEEAFYYI [ADD1] | 2.63 ± 0.53 | 2.72 ± 0.67 | – | –
KYLKLQDTCRTQLVWLVRELVKSG [INTS3] | 2.94 ± 0.82 | 2.6 ± 0.83 | – | –
LAAAPEGLEDAGLDPHFVPTELWP [TEX19] | 4.06 ± 0.11 | 4.19 ± 0.24 | – | –
LAAKERHCGELKRRLGLSTLGELK [TPD52L2] | 2.85 ± 0.32 | 3.02 ± 0.33 | – | –
LAGQFLEELRKFSSLCYKQRIKSQ [MOG] | 2.17 ± 0.27 | 2.14 ± 0.38 | – | –
LALALKKCKPSLPAEAEGAAQELE [TMEM120A] | 4.39 ± 0.18 | 4.46 ± 0.19 | – | –
LALCPANHAPLREQGAIPRLVQLL [CTNNB1] | 2.39 ± 0.21 | 2.59 ± 0.21 | – | –
LAMLALLSPLSLAQYDSWPHYPEY [LOXL2] | 3.22 ± 0.32 | 3.46 ± 0.16 | – | –
